The values that follow come from paper PMC9469209, “Structural basis for activation of Arf1 at the Golgi complex” (Cell reports, 2022).

B1: ΔN17-Arf1 (S. cerevisiae Arf1 lacking its N-terminal amphipathic helix) (domain or fragment, UniProt P11076 18-181, looked up)
chain: MRILMVGLDGAGKTTVLYKLKLGEVITTIPTIGFNVETVQYKNISFTVWDVGGQDRIRSLWRHYYRNTEGVIFVVDSNDRSRIGEAREVMQRMLNEDELRNAAWLVFANKQDLPEAMSAAEITEKLGLHSIRNRPWFIQATCATSGEGLYEGLEWLSNSLKNST
notes: Arf1 GTPase, Saccharomyces cerevisiae, truncated form lacking the N-terminal 17 residues (ΔN17); In the complex Arf1 is nucleotide-free (trapped with alkaline phosphatase); also called nucleotide-free Arf1; Arf1-NF; source: E. coli Rosetta2, purified as previously described (Richardson and Fromme, 2015; Richardson et al., 2012)
B2: Gea2 (full-length Saccharomyces cerevisiae Gea2) (enzyme, UniProt P39993 1-1459, looked up)
chain: MSDREFVTVDPVTIIIKECINLSTAMRKYSKFTSQSGVAALLGGGSEIFSNQDDYLAHTFNNLNTNKHNDPFLSGFIQLRLMLNKLKNLDNIDSLTILQPFLLIVSTSSISGYITSLALDSLQKFFTLNIINESSQNYIGAHRATVNALTHCRFEGSQQLSDDSVLLKVVFLLRSIVDSPYGDLLSNSIIYDVLQTILSLACNNRRSEVLRNAAQSTMIAVTVKIFSKLKTIEPVNVNQIYINDESYTNDVLKADTIGTNVESKEEGSQEDPIGMKVNNEEAISEDDGIEEEHIHSEKSTNGAEQLDIVQKTTRSNSRIQAYADDNYGLPVVRQYLNLLLSLIAPENELKHSYSTRIFGLELIQTALEISGDRLQLYPRLFTLISDPIFKSILFIIQNTTKLSLLQATLQLFTTLVVILGNNLQLQIELTLTRIFSILLDDGTANNSSSENKNKPSIIKELLIEQISILWTRSPSFFTSTFINFDCNLDRADVSINFLKALTKLALPESALTTTESVPPICLEGLVSLVDDMFDHMKDIDREEFGRQKNEMEILKKRDRKTEFIECTNAFNEKPKKGIPMLIEKGFIASDSDKDIAEFLFNNNNRMNKKTIGLLLCHPDKVSLLNEYIRLFDFSGLRVDEAIRILLTKFRLPGESQQIERIIEAFSSAYCENQDYDPSKISDNAEDDISTVQPDADSVFILSYSIIMLNTDLHNPQVKEHMSFEDYSGNLKGCCNHKDFPFWYLDRIYCSIRDKEIVMPEEHHGNEKWFEDAWNNLISSTTVITEIKKDTQSVMDKLTPLELLNFDRAIFKQVGPSIVSTLFNIYVVASDDHISTRMITSLDKCSYISAFFDFKDLFNDILNSIAKGTTLINSSHDDELSTLAFEYGPMPLVQIKFEDTNTEIPVSTDAVRFGRSFKGQLNTVVFFRIIRRNKDPKIFSKELWLNIVNIILTLYEDLILSPDIFPDLQKRLKLSNLPKPSPEISINKSKESKGLLSTFASYLKGDEEPTEEEIKSSKKAMECIKSSNIAASVFGNESNITADLIKTLLDSAKTEKNADNSRYFEAELLFIIELTIALFLFCKEEKELGKFILQKVFQLSHTKGLTKRTVRRMLTYKILLISLCADQTEYLSKLINDELLKKGDIFTQKFFATNQGKEFLKRLFSLTESEFYRGFLLGNENFWKFLRKVTAMKEQSESIFEYLNESIKTDSNILTNENFMWVLGLLDEISSMGAVGNHWEIEYKKLTESGHKIDKENPYKKSIELSLKSIQLTSHLLEDNNDLRKNEIFAIIQALAHQCINPCKQISEFAVVTLEQTLINKIEIPTNEMESVEELIEGGLLPLLNSSETQEDQKILISSILTIISNVYLHYLKLGKTSNETFLKILSIFNKFVEDSDIEKKLQQLILDKKSIEKGNGSSSHGSAHEQTPESNDVEIEATAPIDDNTDDDNKPKLSDVEKD
notes: Gea2, guanine nucleotide exchange factor for Arf1, Saccharomyces cerevisiae, full length; also called Arf-GEF Gea2; source: Pichia pastoris (KM71H), overexpressed, purified (Ni-NTA, MonoQ, TEV cleavage, Superdex 200 Increase SEC); not shown: His6, N-terminal, cleaved

Data set [1] has as its target B2. The experiment in a line: cryo-EM structure; Gea2-Arf1 complex: 1 mg Gea2, 5 mg ΔN17-Arf1 and 250 units alkaline phosphatase at 4°C overnight, then SEC (20 mM Tris pH 8.0, 300 mM NaCl, 1 mM DTT); nucleotide-free activation intermediate; ~5 mg/mL with 2 mM fluorinated fos-choline-8. The note with it: both partners purified.
Data set [2] concerns the molecule itself. Description: cryo-EM structure; Gea2 alone, ~5 mg/mL in SEC buffer (20 mM Tris pH 8.0, 150 mM NaCl, 1 mM DTT) with 2 mM fluorinated fos-choline-8; three dimeric conformations (closed/closed, closed/open, open/open).

By stoichiometry N is commonly meant a count of units in the complex or per binding partner.

For B1, the binding result in data set [1] is “binds”.
In the case of B2, the “stoichiometry N” value in data set [2] worked out at 2.
